Blank lines part the entries; values can stand above or below the binder they belong to.
Legend:
ICOS [1] = biological target: T1, ICOS (human, UniProt Q9Y6W8 21-140, limits assumed); test: ELISA on coated protein (Table 22)
T1 sequence (looked up): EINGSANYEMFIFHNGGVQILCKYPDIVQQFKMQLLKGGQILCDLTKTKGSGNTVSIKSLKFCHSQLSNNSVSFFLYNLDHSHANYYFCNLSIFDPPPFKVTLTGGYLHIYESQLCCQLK

B7-1 = biological target: T2, B7-1 (human, UniProt P33681 35-242); test: ELISA on coated protein (Table 22)
T2 sequence (looked up): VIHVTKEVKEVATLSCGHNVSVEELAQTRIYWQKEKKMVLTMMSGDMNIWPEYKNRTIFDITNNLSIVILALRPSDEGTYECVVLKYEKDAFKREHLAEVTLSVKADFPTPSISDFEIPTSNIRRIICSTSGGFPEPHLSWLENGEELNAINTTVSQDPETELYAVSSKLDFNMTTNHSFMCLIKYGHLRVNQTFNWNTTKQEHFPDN

CTLA4 [2] = biological target: T3, CTLA4 (human, UniProt P16410 37-162, limits assumed); test: ELISA on coated protein (Table 22)
T3 sequence (looked up): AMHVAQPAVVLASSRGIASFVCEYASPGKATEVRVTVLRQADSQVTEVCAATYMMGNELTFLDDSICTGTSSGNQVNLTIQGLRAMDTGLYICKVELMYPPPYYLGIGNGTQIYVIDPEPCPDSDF

CD28 [3] = biological target: CD28 (human, UniProt P10747 19-152); test: ELISA on coated protein (Table 22)
Target sequence in this assay (P10747 19-152 limits assumed): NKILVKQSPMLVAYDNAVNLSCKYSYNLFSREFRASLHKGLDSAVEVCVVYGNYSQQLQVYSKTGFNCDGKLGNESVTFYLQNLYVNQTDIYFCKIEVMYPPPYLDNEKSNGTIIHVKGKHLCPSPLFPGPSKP

[4] = biological target: T4, human PD-1^ECD-hFc protein (Immunogen A) (human, UniProt Q15116 25-167); test: protein-based receptor ligand blocking assay (fully human antibodies), blocked ligand PD-L1
T4 construct: Biotinylated for the Octet assay; also called PD-1-hFc; hPD-1^ECD-hFc; not shown: human IgG Fc fragment (hFc)
Procedure: Purified PD-1^ECD-hFc (Example 2) was diluted with PBS to a final concentration of 1.0 ug/mL, and 100 uL diluted PD-1^ECD-hFc were added to each well of a 96-well plate that was then sealed with plastic film and incubated at 4° C. overnight. The plate was washed twice with wash buffer (PBS+0.01% (v/v) Tween 20) and incubated with blocking buffer (PBS+[…]) at room temperature for 2 hours. The blocking buffer was aspirated, and 50 uL purified anti-PD-1 antibodies from Example 2 were added to each well of 96-well plate. […] The plate was washed three times with wash buffer (PBS+0.01% (v/v) Tween 20). 100 uL HRP-conjugated streptavidin (Sigma) were then added to each well and incubated at 37° C. for 2 hours. The plate was then washed three times with wash buffer, and 100 uL TMB substrate were added to each well. After 30 minutes of incubation at room temperature, the reaction was stopped by adding 100 uL stop solution (0.1N HCl). The absorbance at OD450 nm was measured with an ELISA plate reader (384plus SpectraMax, Molecular Devices).
T4 sequence (Q15116 25-167): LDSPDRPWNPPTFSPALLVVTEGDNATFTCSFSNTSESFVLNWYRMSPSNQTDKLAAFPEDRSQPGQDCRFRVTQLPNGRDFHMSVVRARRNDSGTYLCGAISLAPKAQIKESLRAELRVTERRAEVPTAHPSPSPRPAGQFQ

[5] = biological target: T4, human PD-1^ECD-hFc protein (Immunogen A); test: protein-based receptor ligand blocking assay (fully human antibodies), blocked ligand PD-L2
[6] = biological target: T5, full length human PD-1 on cells (human, UniProt Q15116 25-288); test: cell-based receptor ligand blocking assay (fully human antibodies), blocked ligand PD-L1
T5 construct: Also used here for PD-1 on human T cells/PBMC; also called CHO-K1-hPD-1; hPD-1
T5 sequence (Q15116 25-288 limits assumed): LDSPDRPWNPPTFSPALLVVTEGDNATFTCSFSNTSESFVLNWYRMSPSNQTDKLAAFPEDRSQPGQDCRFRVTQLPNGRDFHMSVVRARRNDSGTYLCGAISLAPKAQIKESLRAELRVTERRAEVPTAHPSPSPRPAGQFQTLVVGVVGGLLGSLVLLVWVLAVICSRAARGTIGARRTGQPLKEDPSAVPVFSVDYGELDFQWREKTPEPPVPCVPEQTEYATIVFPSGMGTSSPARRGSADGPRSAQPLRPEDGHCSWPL

[7] = biological target: T6, human PD-1, full length, on cells (human, UniProt Q15116 25-288); test: flow cytometry on CHO-K1-hPD-1 cells
T6 construct: whole, on cells; in the lymphocyte assays the natural PD-1 of human T cells/PBMCs; also called hPD-1; CHO-K1-hPD-1
T6 sequence (Q15116 25-288): as the sequence (Q15116 25-288 limits assumed) above

[8] = biological target: T7, cyno monkey PD-1^ECD-hFc protein (cyno monkey, UniProt B0LAJ3 25-167); test: ELISA, coated cyno PD-1ECD-hFc
T7 construct: also called cyno PD-1^ECD-hFc; not shown: human IgG Fc fragment (hFc) and its junction to the ECD
T7 sequence (B0LAJ3 entry or part of it limits assumed): as the sequence (Q15116 25-167) above, with D2E, P10A, V19L, T35A, Q75R counted along it

NC-Fc = biological target: T8, NC-Fc; test: ELISA, coated protein, antibody concentration not given
T8 construct: seemingly a negative control Fc protein

[9] = biological target: T9, human PD-1^ECD-hFc protein (Immunogen A) (human, UniProt Q15116 25-167); test: as above
T9 construct: also called PD-1-hFc; hPD-1^ECD-hFc; not shown: human IgG Fc fragment (hFc)
T9 sequence (Q15116 25-167): as the sequence (Q15116 25-167) above

CD28 [10] = biological target: CD28 (human, UniProt P10747 19-152); test: as above
Target sequence in this assay (P10747 19-152 limits assumed): as the sequence (P10747 19-152 limits assumed) above

ICOS [11] = biological target: T10, ICOS (human, UniProt Q9Y6W8 21-140, limits assumed); test: as above
T10 sequence (looked up): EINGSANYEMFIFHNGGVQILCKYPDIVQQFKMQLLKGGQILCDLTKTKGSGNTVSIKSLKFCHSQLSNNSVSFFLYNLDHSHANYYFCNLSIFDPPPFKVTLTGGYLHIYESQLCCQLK

B7.1 = biological target: T11, B7.1 (human, UniProt P33681 35-242); test: as above
T11 sequence (looked up): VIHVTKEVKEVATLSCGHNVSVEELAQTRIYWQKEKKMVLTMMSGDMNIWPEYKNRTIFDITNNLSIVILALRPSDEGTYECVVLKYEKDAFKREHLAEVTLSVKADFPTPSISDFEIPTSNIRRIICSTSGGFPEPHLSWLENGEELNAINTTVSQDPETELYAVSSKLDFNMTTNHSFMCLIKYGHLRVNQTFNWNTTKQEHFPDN

CTLA4 [12] = biological target: T12, CTLA4 (human, UniProt P16410 37-162, limits assumed); test: as above
T12 sequence (looked up): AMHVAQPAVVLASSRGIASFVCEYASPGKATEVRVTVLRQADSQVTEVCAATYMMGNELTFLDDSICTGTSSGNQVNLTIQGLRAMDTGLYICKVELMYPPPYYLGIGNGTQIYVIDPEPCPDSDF

[13] = biological target: T9, human PD-1^ECD-hFc protein (Immunogen A); test: ELISA, coated human PD-1ECD-hFc

binding result (ICOS [1]): no binding
binding result (B7-1): no binding
binding result (CTLA4 [2]): no binding
binding result (CD28 [3]): no binding
B1: fully human anti-PD-1 antibody 223G6B5 (antibody, human IgG4, V domains shown)
VH: QVQLQESGPGLVKPSETLSLTCAVSGHSIRGSYFWGWIRQPPGRGLEWIGSIYHSGSTYTNPSLKSRATISVDTSKNQFSLKLNSVTAADTAVYYCARDLDIATTRDYWGQGTLVTVSS
VL: DIQLTQSPSFLSASVGDRVTIICRASQGINNYLAWYQQKPGKAPKLLIYAASTLQSGVPSRFSGSGSGTEFTLTISSLQPEDFATYYCQQLDSYPRTFGQGTKVEIKR
notes: also called 223G6B5 (fully human, IgG4 S228P / kappa)

IC50 (read off the curve) [4]: ~1 nM
binding result (ICOS [1]): no binding
binding result (B7-1): no binding
binding result (CTLA4 [2]): no binding
IC50 (read off the curve) [5]: ~1 nM
IC50 (read off the curve) [6]: ~5 nM
B2: fully human anti-PD-1 antibody 21G8F11 (antibody, human IgG4 S228P, kappa, V domains shown)
VH: EVQLLESGGGLAQPGGSLRLSCAASGFSFNTYLMHWVRQAPGKGLEWVSAISGGGGNTYYADSVKGRFTISRDNSKNTLYLQMNSLRAEDTAVYYCAKENRIPVAPFDYWGQGTLVTVSS
VL: DIQMTQSPSTLSASVGDRVTITCRASQSISTWLAWYQQKPGKAPKLLIYKASSLESGVPSRFSGSGSGTEFTLTISSLQPDDLATYYCQQYNSFSWTFGQGTKVEIKR
notes: also called 21G8F11 (fully human, IgG4 S228P / kappa)

MFI at 0 nM [7]: 48.8 MFI
MFI at 0.01 nM [7]: 1020 MFI
OD450 nm at 0 nM [8]: 0.19 OD450
OD450 nm at 0.0001 nM [8]: 0.15 OD450
OD450 nm at 0.001 nM [8]: 0.22 OD450
OD450 nm at 0.01 nM [8]: 0.51 OD450
OD450 nm at 0.1 nM [8]: 2.39 OD450
OD450 nm at 1 nM [8]: 2.99 OD450
OD450 nm at 10 nM [8]: 3.02 OD450
OD450 nm at 100 nM [8]: 3 OD450
OD450 nm (NC-Fc): 0.21 OD450
OD450 nm [9]: 2.7 OD450
OD450 nm (CD28 [10]): 0.27 OD450
OD450 nm (ICOS [11]): 0.16 OD450
OD450 nm (B7.1): 0.25 OD450
OD450 nm (CTLA4 [12]): 0.09 OD450
OD450 nm at 0 nM [13]: 0.18 OD450
OD450 nm at 0.0001 nM [13]: 0.16 OD450
OD450 nm at 0.001 nM [13]: 0.26 OD450
OD450 nm at 0.01 nM [13]: 0.58 OD450
OD450 nm at 0.1 nM [13]: 2.62 OD450
OD450 nm at 1 nM [13]: 3.03 OD450
OD450 nm at 10 nM [13]: 3.02 OD450
OD450 nm at 100 nM [13]: 3.03 OD450
B3: fully human anti-PD-1 antibody 21G8F11 (antibody, human IgG4 S228P, kappa, V domains shown)
VH: EVQLLESGGGLAQPGGSLRLSCAASGFSFNTYLMHWVRQAPGKGLEWVSAISGGGGNTYYADSVKGRFTISRDNSKNTLYLQMNSLRAEDTAVYYCAKENRIPVAPFDYWGQGTLVTVSS
VL: DIQMTQSPSTLSASVGDRVTITCRASQSISTWLAWYQQKPGKAPKLLIYKASSLESGVPSRFSGSGSGTEFTLTISSLQPDDLATYYCQQYNSFSWTFGQGTKVEIKR

Reference: US20180214548A1 (SHANGHAI YUNYI HEALTHCARE AND TECHNOLOGY, published 2018)
